{
  "source": "patent US12264201B2",
  "about": "“Bispecific antibody targeting IL-1R1 and NLPR3” (University of Ulster, priority 2018, dated 2025)",
  "molecules": {"B1": {"name": "InflaMab: 210 kDa bispecific mouse antibody to IL-1R1 and NLRP3; light chain SEQ ID NO: 57, heavy chain with scFv SEQ ID NO: 59 (protein)", "light": "MVSSAQFLGLLLLCFQGTRCDIVMTQSPATLSVTPGDRVSLSCRASQSISDYLSWYQQRSHESPRLIIKYASQSISGIPSRFSGSGSGSDFTLSINSVEPEDVGVYYCQHGHSFPLTFGSGTKLELKRADAAPTVSIFPPSSEQLTSGGASVVCFLNNFYPKDINVKWKIDGSERQNGVLNSWTDQDSKDSTYSMSSTLTLTKDEYERHNSYTCEATHKTSTSPIVKSFNRNEC", "heavy": "MGWTLVFLFLLSVTAGVHSQIQLVQSGPELRKPGETVRISCKASGYPFTTAGLQWVQKMSGKGLKWIGWMNTQSEVPKYAEEFKGRIAFSLETAASTAYLQINNLKTEDTATYFCAKSVYFNWRYFDVWGAGTTVTVSSAKTTAPSVYPLAPVCGDTTGSSVTLGCLVKGYFPEPVTLTWNSGSLSSGVHTFPAVLQSDLYTLSSSVTVTSSTWPSQSITCNVAHPASSTKVDKKIEPRGPTIKPCPPCKCPAPNLLGGPSVFIFPPKIKDVLMISLSPIVTCVVVDVSEDDPDVQISWFVNNVEVHTAQTQTHREDYNSTLRVVSALPIQHQDWMSGKEFKCKVNNKDLPAPIERTISKPKGSVRAPQVYVLPPPEEEMTKKQVTLTCMVTDFMPEDIYVEWTNNGKTELNYKNTEPVLDSDGSYFMYSKLRVEKKNWVERNSYSCSVVHEGLHNHHTTKSFSRTPGKGSAGGSGGDSEVQLVESGGGLVKPGGSLKLSCAASGFTFSDYYMYWVRQTPEKRLEWVATISDGGTYTYYPDSVKGRFTISRDNAKNNLYLQMNSLKSEDTAMYYCARGWVSTMVKLLSSFPYWGQGTLVTVSAGGGGSGGGGSGGGGSQAVVTQESALTTSPGETVTLTCRSSTGAVTTSNYANWVQEKPDHLFTGLIGGTNNRAPGVPARFSGSLIGDKAALTITGAQTEDEAIYFCALWYSNYWVFGGGTKLTVLGQPK"}},
  "key": {"THP1 cells [1]": {"test_system": "THP1 cells", "assay": "IL-1β release from LPS/ATP-stimulated differentiated THP1 cells (ELISA)", "format": "cell-based", "conditions": "PMA-differentiated THP1; LPS 1 μg/ml 3 h, Ab 30 min (0.0025-2.5 ng/ml or 1 nM), ATP 5 mM 1 h; supernatant ELISA; FIG. 33", "experimental": "THP1 cells, for FIGS. 33a and b, were cultured in 96-well plates at 100,000 cells/200 μl complete media. PMA (100 μg/ml for 72 hours) was used to differentiate THP-1 cells into macrophages. Following 24 hours of rest, differentiated THP1 cells were stimulated with LPS (1 μg/ml) for 3 hours, treated with MCC950 (1 μM) or the IL-1R1/NLRP3 Ab in a dose dependent fashion from 0.0025 ng/ml to 2.5 ng/ml for FIG. 33a or with IL-1R1/NLRP3 Ab (1 nM) for FIG. 33b or with IgG control antibody for 30 minutes, followed by ATP (5 mM) for 1 hour. IL-1β release was measured in the supernatant by ELISA."}, "THP1 cells [2]": {"test_system": "THP1 cells", "assay": "Caspase-1 activation in THP1 cells (FAM-FLICA staining, confocal)", "format": "cell-based", "experimental": "THP1 cells, for FIG. 34, were cultured in 96-well plates at 100,000cells/200 ul complete media. PMA (100 ug/ml for 72 hours) was used to differentiated THP-1 cells into macrophages. Following 24 hours of rest, differentiated THP1 cells were stimulated with LPS (1 ug/ml) for 3 hours, treated with the IL-1R1/NLRP3 Ab (1 μg/ml) for 30 minutes, followed by ATP (5 mM) for 1 hour. Caspase-1 activation was assessed by staining cells with a non-cytotoxic Fluorescent Labelled Inhibitor of Caspase-1 (FAM-FLICA) and DAPI (nuclear stain). Cells were treated with LPS alone (negative control), LPS+ATP (positive control), mouse IgG2a (1 ug/ml, Ab control), or IL-1r/NLRP3 bi-specific Ab (1 ug/ml, experimental). Representative confocal images are shown for each group. Green=active caspae-1 and blue=Dapi/nuclear stain.\n(§1) Internalization of Inflamab—see FIG. 35. THP1 cells, for FIG. 35, were cultured in 96-well plates at 100,000cells/200 ul complete media. Differentiation of THP1 cells was induced by PMA (100 ug/ml for 72 hours). Following 24 hours of rest, differentiated THP1 cells were stimulated with LPS (1 ug/ml) for 3 hours, treated with a pHrodo red labelled IL-1r/NLRP3 Ab (1 ug/ml) for 30 minutes, followed by ATP (5 mM) for 1 hour. The internalization of the Ab was tracked using a pHrodo red labelled bi-specific Ab that only fluoresces when internalized."}, "THP1 cells [3]": {"test_system": "THP1 cells", "assay": "Internalization of pHrodo red labelled bi-specific Ab in THP1 cells", "format": "cell-based", "conditions": "pHrodo red labelled Ab 1 ug/ml 30 min; differentiated THP1, LPS then ATP; confocal; FIG. 35A", "experimental": "as §1"}, "apoE−/− mice": {"test_system": "apoE−/− mice", "assay": "Atherosclerosis: collar-induced carotid artery plaque formation, morphometry", "format": "in vivo", "from_the_text": "Female apoE−/− mice were fed a Western-type diet, containing 0.25% cholesterol and 15% cacao butter (SDS, Sussex, UK) starting two weeks prior to surgery and throughout the experiment. After 2 weeks of diet feeding, carotid artery plaque formation was induced by perivascular collar placement in these mice as described previously (von der Thusen et al, Circulation. 2001; 103(8):1164-1170). […] Through the experiment, mice were weighed weekly and blood samples were obtained via the tail vein. Total cholesterol levels were determined in the serum using enzymatic colorimetric procedures (Roche/Hitachi, Mannheim, Germany). Precipath (Roche/Hitachi) was used as an internal standard. Fasting glucose levels were determined in mice at 2 weeks after starting the treatment with InflaMab and were measured with an Accu-Check glucometer (Roche Diagnostics, Almere, The Netherlands). For lipid profiling, serum samples pooled from 3 mice were used (n=3 samples per group) which were diluted 6 times, and fractionation of plasma lipoproteins was performed using an AKTA-FPLC. In each fraction, the total cholesterol levels were determined by incubation with cholesterol CHOD-PAP Reagent (Roche, Woerden, The Netherlands). Absorbance was measured at 492 nm.\nAfter 4 weeks of treatment, the mice were anesthetized and in situ perfused, after which the carotid arteries were collected, frozen in OCT compound (TissueTek; Sakura Finetek, The Netherlands) and stored at −80° C. Transverse 10 μm cryosections were prepared on a Leica CM 3050S Cryostat (Leica Instruments) in a proximal direction for (immuno)histochemical analysis.\nCryosections were routinely stained with hematoxylin (Sigma-Aldrich, Zwijndrecht, The Netherlands) and eosin (Merck Diagnostica, Darmstadt, Germany). Morphometric analysis (Leica Qwin image analysis software) was performed on hematoxylin-eosin stained sections of the carotid arteries. For each carotid, lesion size was quantified every 100 μm, from the first appearance of the lesion proximal to the collar up to complete disappearance of the lesion from the artery. The number of sections analyzed ranged from 5 to 15 sections per mouse, from which average plaque size and plaque volume were calculated. The section with the largest plaque size was annotated as the plaque with maximum stenosis. For the quantification of lesion content in the carotid artery, four consecutive cross-sections containing the largest lesions were used. To determine lipid content, sections were stained with Oil-Red-O (Sigma-Aldrich). Macrophage content of the lesions was assessed using a rat monoclonal MOMA-2 antibody (Serotec, Kidlington, Oxford, UK). Collagen was visualized using a Sirius Red staining (Sigma-Aldrich). Mast cells and neutrophils were visualized by staining of cryosections with naphthol AS-D chloroacetate esterase (Sigma-Aldrich). The number of mast cells and neutrophils was assessed manually in two consecutive cross-sections containing the largest lesions. MOMA-2 and collagen positive areas were quantified by Leica Qwin image analysis software using a Leica DM-RE microscope (Leica Microsystems Inc., Wetzlar, Germany). All morphometric analyses were performed by a blinded operator (T.v.d.H.).\nAtherosclerosis study: InflaMab reduces plaque size in an in vivo apoe−/− model of atherosclerosis—see FIG. 38. After 2 weeks of western type diet feeding in female apoE−/− mice, carotid artery plaque formation was induced by perivascular collar placement. […] Carotid arteries then collected for cyrosections. For each carotid, lesion size was quantitated every 80 μm, from the first appearance of the lesion proximal to the collar up to complete disappearance of the lesion from the artery."}},
  "data": [
    {"molecule": "B1", "values": [
      {"measurement": "IL-1β release", "setting": "THP1 cells [1]", "result": "prevents"},
      {"measurement": "caspase-1 activation", "setting": "THP1 cells [2]; differentiated THP1, LPS 1 ug/ml 3 h, Ab 1 μg/ml 30 min, ATP 5 mM 1 h, FAM-FLICA, FIG. 34", "result": "prevents"},
      {"measurement": "caspase-1 activation in THP1 cells that have internalized the bi-specific Ab as compared to cells that did not", "setting": "THP1 cells [2]; pHrodo red labelled Ab 1 ug/ml 30 min, LPS then ATP, confocal, FIG. 35B", "result": "significant reduction"},
      {"measurement": "internalization of the Ab", "setting": "THP1 cells [3]", "result": "shows the internalization"},
      {"measurement": "reduction in lesion size", "setting": "apoE−/− mice; FIG. 38, significant, versus control", "result": "−35", "unit": "%"},
      {"measurement": "Mouse weight", "setting": "apoE−/− mice; InflaMab versus control groups", "result": "no difference"},
      {"measurement": "general white blood cell levels (hematology analysis)", "setting": "apoE−/− mice; InflaMab versus control groups", "result": "no difference"},
      {"measurement": "% reduction of plaque size at site of maximal stenosis", "setting": "apoE−/− mice; InflammAb average versus Control IgG average", "result": 30.6164, "unit": "%"},
      {"measurement": "Average plaque size, group Average", "setting": "apoE−/− mice; group average, 10 mice listed", "result": 36604, "unit": "μm^2"},
      {"measurement": "Lumen size at site of maximal stenosis, Average", "setting": "apoE−/− mice; group average, 10 mice listed", "result": 11415, "unit": "μm^2"},
      {"measurement": "Media (size) at site of maximal stenosis, Average", "setting": "apoE−/− mice; group average, 10 mice listed", "result": 40997, "unit": "μm^2"},
      {"measurement": "Plaque size at site of maximal stenosis, Average", "setting": "apoE−/− mice; group average, 10 mice listed", "result": 58881, "unit": "μm^2"},
      {"measurement": "total vessel area at site of maximal stenosis, Average", "setting": "apoE−/− mice; group average, 10 mice listed", "result": 111293, "unit": "μm^2"},
      {"measurement": "Lumen size (area of the artery still open for blood flow) compared to Control IgG", "setting": "apoE−/− mice; in words", "result": "almost significantly larger"},
      {"measurement": "Total vessel area (plaque+media+lumen) compared to Control IgG", "setting": "apoE−/− mice; in words", "result": "not different"},
      {"measurement": "media size (size of the medial smooth muscle layer) compared to Control IgG", "setting": "apoE−/− mice; in words, Tables 5 and 6", "result": "no effect"},
      {"measurement": "lesion size, FIG. 38a", "setting": "apoE−/− mice; versus control, in words", "result": "trend towards a reduction"}
    ]}
  ]
}
